Measured values published in publication PMC10540216, “Activity Guided Azide-methyllysine Photo-trapping for Substrate Profiling of Lysine Demethylases” (Journal of the American Chemical Society, 2023).

The molecules below were run on KDM4A-I71AzF (assay: CASI: photo-crosslinking with HEK293T cell extracts, StrepTactin enrichment and LC-MS/MS proteomics). Settings: sheet "Final results but with 0.01".
Type: binding, human
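Note: lysates from HEK293T cells pretreated with a KDM4 inhibitor to raise proteome methylation, affinity-purified after ±UV, gel-resolved, trypsin-digested, with exclusive unique peptides per protein averaged per condition.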

Molecule | Fold change (+UV/-UV)
NOLC1_HUMAN (protein, UniProt Q14978 1-699, looked up) Nucleolar and coiled-body …: MADAGIRRVVPSDLYPLVLGFLRDNQLSEVANKFAKATGATQQDANASSLLDIYSFWLKSAKVPERKLQANGPVAKKAKKKASSSDSEDSSEEEEEVQGPPAKKAAVPAKRVGLPPGKAAAKASESSSSEESSDDDDEEDQKKQPVQKGVKPQAKAAKAPPKKAKSSDSDSDSSSEDEPPKNQKPKITPVTVKAQTKAPPKPARAAPKIANGKAASSSSSSSSSSSSDDSEEEKAAATPKKTVPKKQVVAKAPVKAATTPTRKSSSSEDSSSDEEEEQKKPMKNKPGPYSSVPPPSAPPPKKSLGTQPPKKAVEKQQPVESSEDSSDESDSSSEEEKKPPTKAVVSKATTKPPPAKKAAESSSDSSDSDSSEDDEAPSKPAGTTKNSSNKPAVTTKSPAVKPAAAPKQPVGGGQKLLTRKADSSSSEEESSSSEEEKTKKMVATTKPKATAKAALSLPAKQAPQGSRDSSSDSDSSSSEEEEEKTSKSAVKKKPQKVAGGAAPSKPASAKKGKAESSNSSSSDDSSEEEEEKLKGKGSPRPQAPKANGTSALTAQNGKAAKNSEEEEEEKKKAAVVVSKSGSLKKRKQNEAAKEAETPQAKKIKLQTPNTFPKRKKGEKRASSPFRRVREEEIEVDSRVADNSFDAKRGAAGDWGERANQVLKFTKGKSFRHEKTKKKRGSYRGGSISVQVNSIKFDSE | 1
MCM5_HUMAN (protein, UniProt P33992 2-734, looked up) DNA replication licensing …: SGFDDPGIFYSDSFGGDAQADEGQARKSQLQRRFKEFLRQYRVGTDRTGFTFKYRDELKRHYNLGEYWIEVEMEDLASFDEDLADYLYKQPAEHLQLLEEAAKEVADEVTRPRPSGEEVLQDIQVMLKSDASPSSIRSLKSDMMSHLVKIPGIIIAASAVRAKATRISIQCRSCRNTLTNIAMRPGLEGYALPRKCNTDQAGRPKCPLDPYFIMPDKCKCVDFQTLKLQELPDAVPHGEMPRHMQLYCDRYLCDKVVPGNRVTIMGIYSIKKFGLTTSRGRDRVGVGIRSSYIRVLGIQVDTDGSGRSFAGAVSPQEEEEFRRLAALPNVYEVISKSIAPSIFGGTDMKKAIACLLFGGSRKRLPDGLTRRGDINLLMLGDPGTAKSQLLKFVEKCSPIGVYTSGKGSSAAGLTASVMRDPSSRNFIMEGGAMVLADGGVVCIDEFDKMREDDRVAIHEAMEQQTISIAKAGITTTLNSRCSVLAAANSVFGRWDETKGEDNIDFMPTILSRFDMIFIVKDEHNEERDVMLAKHVITLHVSALTQTQAVEGEIDLAKLKKFIAYCRVKCGPRLSAEAAEKLKNRYIIMRSGARQHERDSDRRSSIPITVRQLEAIVRIAEALSKMKLQPFATEADVEEALRLFQVSTLDAALSGTLSGVEGFTSQEDQEMLSRIEKQLKRRFAIGSQVSEHSIIKDFTKQKYPEHAIHKVLQLMLRRGEIQHRMQRKVLYRLK | 0.9167
MCM6_HUMAN (protein, UniProt Q14566 1-821, looked up) DNA replication licensing …: MDLAAAAEPGAGSQHLEVRDEVAEKCQKLFLDFLEEFQSSDGEIKYLQLAEELIRPERNTLVVSFVDLEQFNQQLSTTIQEEFYRVYPYLCRALKTFVKDRKEIPLAKDFYVAFQDLPTRHKIRELTSSRIGLLTRISGQVVRTHPVHPELVSGTFLCLDCQTVIRDVEQQFKYTQPNICRNPVCANRRRFLLDTNKSRFVDFQKVRIQETQAELPRGSIPRSLEVILRAEAVESAQAGDKCDFTGTLIVVPDVSKLSTPGARAETNSRVSGVDGYETEGIRGLRALGVRDLSYRLVFLACCVAPTNPRFGGKELRDEEQTAESIKNQMTVKEWEKVFEMSQDKNLYHNLCTSLFPTIHGNDEVKRGVLLMLFGGVPKTTGEGTSLRGDINVCIVGDPSTAKSQFLKHVEEFSPRAVYTSGKASSAAGLTAAVVRDEESHEFVIEAGALMLADNGVCCIDEFDKMDVRDQVAIHEAMEQQTISITKAGVKATLNARTSILAAANPISGHYDRSKSLKQNINLSAPIMSRFDLFFILVDECNEVTDYAIARRIVDLHSRIEESIDRVYSLDDIRRYLLFARQFKPKISKESEDFIVEQYKHLRQRDGSGVTKSSWRITVRQLESMIRLSEAMARMHCCDEVQPKHVKEAFRLLNKSIIRVETPDVNLDQEEEIQMEVDEGAGGINGHADSPAPVNGINGYNEDINQESAPKASLRLGFSEYCRISNLIVLHLRKVEEEEDESALKRSELVNWYLKEIESEIDSEEELINKKRIIEKVIHRLTHYDHVLIELTQAGLKGSTEGSESYEEDPYLVVNPNYLLED | 0.75
DHX15_HUMAN (protein, UniProt O43143 1-795, looked up) ATP-dependent RNA helicase …: MSKRHRLDLGEDYPSGKKRAGTDGKDRDRDRDREDRSKDRDRERDRGDREREREKEKEKELRASTNAMLISAGLPPLKASHSAHSTHSAHSTHSTHSAHSTHAGHAGHTSLPQCINPFTNLPHTPRYYDILKKRLQLPVWEYKDRFTDILVRHQSFVLVGETGSGKTTQIPQWCVEYMRSLPGPKRGVACTQPRRVAAMSVAQRVADEMDVMLGQEVGYSIRFEDCSSAKTILKYMTDGMLLREAMNDPLLERYGVIILDEAHERTLATDILMGVLKEVVRQRSDLKVIVMSATLDAGKFQIYFDNCPLLTIPGRTHPVEIFYTPEPERDYLEAAIRTVIQIHMCEEEEGDLLLFLTGQEEIDEACKRIKREVDDLGPEVGDIKIIPLYSTLPPQQQQRIFEPPPPKKQNGAIGRKVVVSTNIAETSLTIDGVVFVIDPGFAKQKVYNPRIRVESLLVTAISKASAQQRAGRAGRTRPGKCFRLYTEKAYKTEMQDNTYPEILRSNLGSVVLQLKKLGIDDLVHFDFMDPPAPETLMRALELLNYLAALNDDGDLTELGSMMAEFPLDPQLAKMVIASCDYNCSNEVLSITAMLSVPQCFVRPTEAKKAADEAKMRFAHIDGDHLTLLNVYHAFKQNHESVQWCYDNFINYRSLMSADNVRQQLSRIMDRFNLPRRSTDFTSRDYYINIRKALVTGYFMQVAHLERTGHYLTVKDNQVVQLHPSTVLDHKPEWVLYNEFVLTTKNYIRTCTDIKPEWLVKIAPQYYDMSNFPQCEAKRQLDRIIAKLQSKEYSQY | 1.071
DDX21_HUMAN (protein, UniProt Q9NR30 1-783, looked up) Nucleolar RNA helicase 2: MPGKLRSDAGLESDTAMKKGETLRKQTEEKEKKEKPKSDKTEEIAEEEETVFPKAKQVKKKAEPSEVDMNSPKSKKAKKKEEPSQNDISPKTKSLRKKKEPIEKKVVSSKTKKVTKNEEPSEEEIDAPKPKKMKKEKEMNGETREKSPKLKNGFPHPEPDCNPSEAASEESNSEIEQEIPVEQKEGAFSNFPISEETIKLLKGRGVTFLFPIQAKTFHHVYSGKDLIAQARTGTGKTFSFAIPLIEKLHGELQDRKRGRAPQVLVLAPTRELANQVSKDFSDITKKLSVACFYGGTPYGGQFERMRNGIDILVGTPGRIKDHIQNGKLDLTKLKHVVLDEVDQMLDMGFADQVEEILSVAYKKDSEDNPQTLLFSATCPHWVFNVAKKYMKSTYEQVDLIGKKTQKTAITVEHLAIKCHWTQRAAVIGDVIRVYSGHQGRTIIFCETKKEAQELSQNSAIKQDAQSLHGDIPQKQREITLKGFRNGSFGVLVATNVAARGLDIPEVDLVIQSSPPKDVESYIHRSGRTGRAGRTGVCICFYQHKEEYQLVQVEQKAGIKFKRIGVPSATEIIKASSKDAIRLLDSVPPTAISHFKQSAEKLIEEKGAVEALAAALAHISGATSVDQRSLINSNVGFVTMILQCSIEMPNISYAWKELKEQLGEEIDSKVKGMVFLKGKLGVCFDVPTASVTEIQEKWHDSRRWQLSVATEQPELEGPREGYGGFRGQREGSRGFRGQRDGNRRFRGQREGSRGPRGQRSGGGNKSNRSQNKGQKRSFSKAFGQ | 1
